# Laboratory results reported in publication PMC4993999, “Asymmetry in inward- and outward-affinity constant of transport explain unidirectional lysine flux in Saccharomyces cerevisiae” (Scientific Reports, 2016).
# What was measured:
# purified protein [1] = substrate: NCCCC[C@H](N)C(=O)O; test: purified protein; conditions: PMF-driven: ΔΨ -84 mV, ZΔpH -84 mV, external pH 6.0, internal pH 7.3, 30 °C, labelled compound
# purified protein [2] = substrate: NCCCC[C@H](N)C(=O)O; test: purified protein; assay type: biochemical, Saccharomyces cerevisiae; conditions: PMF-driven: ΔΨ -84 mV, ZΔpH -84 mV, external pH 6.0, internal pH 7.3, 30 °C, labelled compound, high-affinity component (out-to-in) of hyperbola plus linear fit
# [3] = substrate: NCCCC[C@H](N)C(=O)O; test: cells, lysate or membranes; assay type: cell-based, Saccharomyces cerevisiae; conditions: whole cells 22∆6AAL, 100 mM potassium phosphate, 10 mM glucose, pH 6.0, 30 °C, labelled compound
protein,measurement,setting,value
LysP (Salmonella enterica subsp. enterica serovar Typhimurium str. LT2) (protein) MGSKTKTTEAPALRRELKARHLTMIAIGGSIGTGLFVASGATISQAGPGGALFSYILIGLMVYFLMTSLGELAAYMPVSGSFATYGQNYVEEGFGFALGWNYWYNWAVTIAVDLVAAQLVMGWWFPDTPGWIWSALFLCVIFLLNYISVRGFGEAEYWFSLIKVATVIIFIIVGVAMIIGIFKGVEPVGWSNWTTGDAPFAGGFAAMIGVAMIVGFSFQGTELIGIAAGESENPEKNIPRAVRQVFWRILLFYVFAILIISLIIPYTDPNLLRNDVKDISVSPFTLVFQHAGLLSAAAIMNAVILTAVLSAGNSGMYASTRMLYTLACDGKAPRIFAKLSRGGVPRNALYATTVIAGLCFLTSMFGNQTVYLWLLNTSGMTGFIAWLGIAISHYRFRRGYVLQGYDVNDLPYRSGFFPLGPIFAFVLCLIITLGQNYEAFLKDTIDWGGVAATYIGIPLFLLIWFGYKLIKGTHFVRYSEMHFPERVKK,Km,purified protein [1],1.5 ± 0.2 µM
"Lyp1-GFP (Lyp1-TEV-GFP-His10) (Saccharomyces cerevisiae S288C) (protein, full length, C-terminal TEV-GFP-His10 kept; expressed in Pichia pastoris SMD1163; purified and reconstituted in yeast/E. coli lipid vesicles) MGRFSNIITSNKWDEKQNNIGEQSMQELPEDQIEHEMEAIDPSNKTTPYSIDEKQYNTKKKHGSLQGGAIADVNSITNSLTRLQVVSHETDINEDEEEAHYEDKHVKRALKQRHIGMIALGGTIGTGLFVGISTPLSNAGPVGSLIAYIFMGTIVYFVTQSLGEMATFIPVTSSITVFSKRFLSPAFGVSNGYMYWFNWAITYAVEVSVIGQVIEYWTDKVPLAAWIAIFWVIITLMNFFPVKVYGEFEFWVASVKVLAIMGYLIYALIIVCGGSHQGPIGFRYWRNPGAWGPGIISSDKSEGRFLGWVSSLINAAFTYQGTELVGITAGEAANPRKTVPRAINKVVFRIVLFYIMSLFFIGLLVPYNDSRLSASSAVIASSPFVISIQNAGTYALPDIFNAVVLITVVSAANSNVYVGSRVLYSLARTGNAPKQFGYVTRQGVPYLGVVCTAALGLLAFLVVNNNANTAFNWLINISTLAGLCAWLFISLAHIRFMQALKHRGISRDDLPFKAKLMPYGAYYAAFFVTVIIFIQGFQAFCPFKVSEFFTSYISLILLAVVFIGCQIYYKCRFIWKLEDIDIDSDRREIEAIIWEDDEPKNLWEKFWAAVA",Km,purified protein [2],20 ± 14 µM
"Lyp1-YPet (Saccharomyces cerevisiae S288C) (protein, full length, C-terminal TEV-YPet-His8 kept; expressed from plasmid under native LYP1 promoter in S. cerevisiae 22∆6AAL) MGRFSNIITSNKWDEKQNNIGEQSMQELPEDQIEHEMEAIDPSNKTTPYSIDEKQYNTKKKHGSLQGGAIADVNSITNSLTRLQVVSHETDINEDEEEAHYEDKHVKRALKQRHIGMIALGGTIGTGLFVGISTPLSNAGPVGSLIAYIFMGTIVYFVTQSLGEMATFIPVTSSITVFSKRFLSPAFGVSNGYMYWFNWAITYAVEVSVIGQVIEYWTDKVPLAAWIAIFWVIITLMNFFPVKVYGEFEFWVASVKVLAIMGYLIYALIIVCGGSHQGPIGFRYWRNPGAWGPGIISSDKSEGRFLGWVSSLINAAFTYQGTELVGITAGEAANPRKTVPRAINKVVFRIVLFYIMSLFFIGLLVPYNDSRLSASSAVIASSPFVISIQNAGTYALPDIFNAVVLITVVSAANSNVYVGSRVLYSLARTGNAPKQFGYVTRQGVPYLGVVCTAALGLLAFLVVNNNANTAFNWLINISTLAGLCAWLFISLAHIRFMQALKHRGISRDDLPFKAKLMPYGAYYAAFFVTVIIFIQGFQAFCPFKVSEFFTSYISLILLAVVFIGCQIYYKCRFIWKLEDIDIDSDRREIEAIIWEDDEPKNLWEKFWAAVA",Km,[3],10 ± 0.8 µM
